From US20050191293A1 (Bristol-Myers Squibb, published 2005)
Values joined by “and” are separate entries in the source; they are usually repeats but may differ in a detail not shown here. Equal entries are not always repeated.

T1: rhesus monkey IP-10 (rhesus monkey, UniProt Q8MIZ1 22-98)
T1 construct: Made by recombinant expression and purified by standard methods; also called Rhesus IP-10; rrmIP-10
T1 sequence: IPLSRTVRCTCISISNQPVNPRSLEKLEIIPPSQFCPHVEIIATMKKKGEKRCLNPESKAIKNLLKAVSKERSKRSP

T2: human ITAC (interferon-inducible T cell alpha chemoattractant) (human, UniProt O14625 22-94)
T2 sequence: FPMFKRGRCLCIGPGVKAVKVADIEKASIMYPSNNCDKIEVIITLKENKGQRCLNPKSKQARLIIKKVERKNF

T3: mouse IP-10 (mouse, UniProt P17515 22-98)
T3 construct: Bought (PeproTech 250-16)
T3 sequence: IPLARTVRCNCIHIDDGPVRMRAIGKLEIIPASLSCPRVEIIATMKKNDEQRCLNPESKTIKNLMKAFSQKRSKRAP

T4: human MIG (monokine induced by gamma interferon) (human, UniProt Q07325 23-125)
T4 construct: Bought (PeproTech 300-26; R&D Systems for the migration assay)
T4 sequence: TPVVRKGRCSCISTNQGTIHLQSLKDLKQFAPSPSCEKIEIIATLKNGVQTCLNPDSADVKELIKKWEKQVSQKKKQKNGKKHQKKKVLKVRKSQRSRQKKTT


Columns and labels:
[1] = molecular target: T1, rhesus monkey IP-10; test: SPR (Biacore), antigen on CM5 chip, antibody 133 nM, 25 C
Protocol: (§1) The flow was then stopped and dissociation was monitored for 5 minutes. The association and dissociation curves were fit to a Langmuir binding model using BIAevaluation software (Biacore AB).

[2] = molecular target: T2, human ITAC (interferon-inducible T cell …); test: SPR (Biacore), antigen on CM5 chip, 25 C; sample 6A5
Protocol: as §1

[3] = molecular target: T3, mouse IP-10; test: as above
Protocol: as §1

[4] = molecular target: T5, human IP-10 (interferon gamma inducible protein 10) (human, UniProt P02778 22-98); test: SPR (Biacore), extension of dissociation curve, 37 C
T5 construct: Native IP-10 from THP-1 supernatant and from MS patient CSF in the migration assays is also put under this molecule; also called CXCL10; rhIP-10
T5 sequence (P02778 other isoform, or with tags, fused parts or gaps limits assumed): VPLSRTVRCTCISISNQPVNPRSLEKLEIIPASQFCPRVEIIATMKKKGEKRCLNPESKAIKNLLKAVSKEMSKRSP
Protocol: (§2) Binding was measured by flowing the antibody in HBS EP buffer (provided by Biacore AB) at concentrations from 33-267 nM at a flow rate of 40 μl/min. The antigen-antibody association kinetics was followed for 5 minutes and the dissociation kinetics was followed for 8 minutes. The association and dissociation curves were fit to a 1:1 Langmuir binding model using BIAevaluation software (Biacore AB). Data corresponding to the initial few dozen seconds for association and dissociation phases alone were considered for curve fitting to minimize the effect of avidity. The experiments were performed at both 25° C. and 37° C.
(§3) The values were determined by extension of the dissociation curves to get to the time required for the 50% reduction of the Y-axis of the dissociation sensogram.

[5] = molecular target: T5, human IP-10 (interferon gamma inducible …); test: cell-based or functional assay
[6] = molecular target: T5, human IP-10 (interferon gamma inducible …); test: SPR (Biacore), extension of dissociation curve, 25 C
Protocol: as §2, §3

[7] = molecular target: T5, human IP-10 (interferon gamma inducible …); test: cell-based or functional assay; remark: listed apart in the source
[8] = molecular target: T5, human IP-10 (interferon gamma inducible …); test: inhibition of 0.100 nM 125I-IP-10 binding to CXCR3-expressing 300.19 cells
Protocol: The cells were grown in RPMI media containing 10% FCS and G418 selection. Prior to use, the cells were washed twice with Hank's Balanced Salt Solution (HBSS) at 4° C. and adjusted to 4×10⁷ cells/ml. Glass fiber plates (Millipore MultiScreen®, Cat. #MAFBNOB50) were blocked with 200 μl of a 0.1% polyethyleneimine solution one day prior to the experiment. On the day of the study, the blocking buffer was aspirated by using a Millipore manifold. The plates were washed three times with 200 μl of binding buffer (50 mM HEPES, pH 7.2, 1 mM CaCl₂, 5 mM MgCl₂, 0.5% BSA). […] The plates were incubated on a plate shaker for 60 minutes at room temperature and washed three times with wash buffer (10 mM HEPES, pH 7.2, 0.5 M NaCl, 0.5% BSA) at a volume of 200 μl per wash. The plates were dried, 25 μl of scintillant was added and the plates were counted on a Wallac Microbeta Counter. Data were analyzed using Prism software and a KD was calculated.
Competition assays were run in a similar manner to the experiment described above. […] Lastly, 25 μl of cells at a density of 1×10⁶ cells per well were added and the plates were incubated on a plate shaker for 60 minutes at room temperature, washed and counted as described above. EC₅₀ values were calculated using Prism software. Kᵢ values (in nM) were determined using the formula: […]

[9] = molecular target: T5, human IP-10 (interferon gamma inducible …); test: SPR (Biacore), human IP-10 on CM5 chip, 25 C
Protocol: as §2

[10] = molecular target: T4, human MIG (monokine induced by gamma …); test: SPR (Biacore), antigen on CM5 chip, 25 C; sample 6A5 Batch 2
Protocol: as §1

[11] = molecular target: T1, rhesus monkey IP-10; test: ELISA, plate coated with 1 ug/ml antigen
Protocol: (§4) The plates were washed with PBS/Tween and then incubated with a goat-anti-human IgG Fc polyclonal antibody conjugated with horseradish peroxidase (HRP) for 1 hour at room temperature. After washing, the plates were developed with ABTS substrate (Sigma, A-1888, 0.22 mg/ml) and analyzed by spectrophotometer at OD 415-495.

[12] = molecular target: T5, human IP-10 (interferon gamma inducible …); test: ELISA, plate coated with 1 ug/ml antigen
Protocol: as §4

[13] = molecular target: T1, rhesus monkey IP-10; test: cell-based or functional assay
[14] = molecular target: T5, human IP-10 (interferon gamma inducible …); test: cell-based or functional assay; remark: listed apart in the source
[15] = molecular target: T5, human IP-10 (interferon gamma inducible …); test: SPR (Biacore), human IP-10 on CM5 chip, 37 C
Protocol: as §2

[16] = molecular target: T4, human MIG (monokine induced by gamma …); test: SPR (Biacore), antigen on CM5 chip, antibody 133 nM, 25 C
Protocol: as §1

[17] = molecular target: T4, human MIG (monokine induced by gamma …); test: ELISA, plate coated with 1 ug/ml antigen
Protocol: as §4

[18] = molecular target: T2, human ITAC (interferon-inducible T cell …); test: SPR (Biacore), antigen on CM5 chip, 25 C
Protocol: as §1

[19] = molecular target: T3, mouse IP-10; test: SPR (Biacore), antigen on CM5 chip, 25 C
Protocol: as §1

Row | Kd [1] | Half-life (dissociation of half of the antibody-antigen complex) [4] | Half-life (dissociation of half of the antibody-antigen complex) [6] | Ki [8] | Kd [9] | koff [9] | kon [9] | EC50 [11] | EC50 [12] | Kd [15] | koff [15] | kon [15] | Binder | further results
1 | 1.06 nM and 1.23 nM | 2.69 h and 3.87 h | 5.29 h and 6.21 h | 0.67 nM and 0.35 nM | 1.2 nM and 0.96 nM | 3.64e-05 s⁻¹ and 3.1e-05 s⁻¹ | 31100 M⁻¹ s⁻¹ and 32000 M⁻¹ s⁻¹ | 0.125 mg/L and 0.09 mg/L | 0.035 mg/L and 0.062 mg/L | 0.7 nM and 0.74 nM | 7.15e-05 s⁻¹ and 6.26e-05 s⁻¹ | 102000 M⁻¹ s⁻¹ and 84100 M⁻¹ s⁻¹ | 6A5 human monoclonal antibody (antibody, V domains shown, Human IgG with kappa light chain from a hybridoma; also called 6A5 Batch 2; 6A5 (Batch 2)) VH: QMQLVESGGGVVQPGRSLRLSCTASGFTFSNNGMHWVRQAPGKGLEWVAVIWFDGMNKFYVDSVKGRFTISRDNSKNTLYLEMNSLRAEDTAIYYCAREGDGSGIYYYYGMDVWGQGTTVTVSS VL: not shown | binding result [2]: no binding (tested: 133 nM); binding result [3]: no binding (tested: 133 nM); IC50 (nM) for 300.19 Cells: inhibition of IP-10-induced calcium flux in 300.19 cells transfected to express CXCR3 (sample 6A5) [5]: 0.61 nM; IC50 (nM) for 300.19 Cells: inhibition of IP-10-induced calcium flux in 300.19 cells transfected to express CXCR3 (sample 6A5 Batch 2) [5]: 0.42 nM; IC50 (nM) for HPBL: inhibition of IP-10-induced calcium flux in anti-CD3 activated human PBLs that express CXCR3 (sample 6A5) [5]: 2.85 nM; IC50 (nM) for HPBL: inhibition of IP-10-induced calcium flux in anti-CD3 activated human PBLs that express CXCR3 (sample 6A5 Batch 2) [5]: 2.18 nM; Expt. 1 IC50: inhibition of MS-CSF induced migration of CXCR3-expressing 300.19 cells, MIG neutralized by anti-MIG (sample 6A5 (Batch 2)) [7]: 0.1 mg/L; Expt. 2 IC50: inhibition of MS-CSF induced migration of CXCR3-expressing 300.19 cells, MIG neutralized by anti-MIG (sample 6A5 (Batch 2)) [7]: 0.236 mg/L; binding result [10]: no binding (tested: 133 nM); rrmIP-10 IC50: inhibition of migration of CXCR3-expressing 300.19 cells induced by 100 ng/ml recombinant rhesus macaque IP-10 (sample 6A5 (Batch 2)) [13]: 0.119 mg/L; THP-1 IP-10 IC50: inhibition of migration of CXCR3-expressing 300.19 cells induced by native IP-10 in THP-1 supernatant, MIG blocked by anti-MIG (sample 6A5 (Batch 2)) [14]: 0.132 mg/L; rhIP-10 IC50: inhibition of migration of CXCR3-expressing 300.19 cells induced by 100 ng/ml recombinant human IP-10 (sample 6A5 (Batch 2)) [14]: 0.156 mg/L
2 | 0.26 nM | 3.87 h | 25.7 h | 0.09 nM | ~0.198 nM | 7.5e-06 s⁻¹ | 37800 M⁻¹ s⁻¹ | 0.03 mg/L | 0.03 mg/L | 0.34 nM | 4.97e-05 s⁻¹ | 148000 M⁻¹ s⁻¹ | 2G1 human monoclonal antibody (antibody, V domains shown, Human IgG with kappa light chain from a hybridoma of transgenic mice) VH: QVQLVESGGGVVQPGRSLRLSCAASGFTFSNCGMHWVRQAPGKGLEWVALIGYDGINEYYADSVKGRFTISRDNSKNTLYLQMNSLRAEDTAVFYCARDWPEGYYNGMDVWGQGTTVTVSS VL: not shown | Kd [16]: 70.1 nM; IC50 (nM) for 300.19 Cells: inhibition of IP-10-induced calcium flux in 300.19 cells transfected to express CXCR3 [5]: 0.5 nM; IC50 (nM) for HPBL: inhibition of IP-10-induced calcium flux in anti-CD3 activated human PBLs that express CXCR3 [5]: 2.98 nM; EC50 [17]: 0.045 mg/L; binding result [18]: no binding (tested: 133 nM); binding result [19]: no binding (tested: 133 nM)
